A value given as a limit tells only on which side of the number the result lay.

Assay [1] deals with T1, RSV postfusion F, subtype A (postF, F ΔFP trimer) (Respiratory syncytial virus subtype A, UniProt P03420 26-513).
T1 construct: also called Postfusion subtype A
As to the kind of experiment: BLI, IgG apparent affinity.

The target of assay [2] is RSV prefusion F, subtype A (preF, DS-Cav1 trimer) (Respiratory syncytial virus subtype A, UniProt P03420 26-513). The assay is described as follows: BLI, IgG apparent affinity. (In general: Biolayer interferometry detects binding as a change in optical thickness at a sensor tip.)
Assay [3] has as its target T2, RSV postfusion F, subtype B (postF trimer) (Respiratory syncytial virus subtype B, UniProt P13843 26-513).
T2 construct: also called Postfusion subtype B
As to the kind of experiment: BLI, IgG apparent affinity.

The target of assay [4] is RSV postfusion F (postF), F ΔFP (Respiratory Syncytial Virus, UniProt P03420 26-513). The assay is described as follows: BLI, IgG on anti-human IgG sensor.
Assay [5] addresses RSV prefusion F (preF), DS-Cav1 (Respiratory Syncytial Virus, UniProt P03420 26-513). As to the kind of experiment: BLI, IgG on anti-human IgG sensor, 100 nM antigen, 1:1 fit.
The next assay deals with RSV F on RSV-A2 virus (Respiratory Syncytial Virus (RSV-A2), UniProt P03420 26-574). The assay is described as follows: cell-based or functional assay.
Assay [6] concerns the target RSV F on recombinant mKate-RSV B 18537 virus (Respiratory syncytial virus B 18537, UniProt P13843 26-574). The assay is described as follows: cell-based or functional assay.
Assay [7] concerns the target RSV F on recombinant mKate-RSV A2 virus (Respiratory syncytial virus A2, UniProt P03420 26-574). The assay is described as follows: cell-based or functional assay.

B1: ADI-21087 (antibody, V domains shown)
VH: EVQLVESGGGLVQPGGSLRLSCAASGFTFSGYEMNWVRQAPGKGLEWLSYISSSGGIIYYADSVKGRFTISRDNARNSLFLQMNSLRAEDTAVYSCARARLLDGFDIWGQGTMVTVSS
VL: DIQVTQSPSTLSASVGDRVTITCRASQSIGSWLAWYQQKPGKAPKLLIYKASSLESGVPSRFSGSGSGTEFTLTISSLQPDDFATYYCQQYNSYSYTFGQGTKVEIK
For the molecule B1, the results for the Kd in assay [1] and in assay [3] were 0.545 nM and 0.476 nM, respectively. Moreover, in assay [2], the binding result is recorded as “no binding”.

B2: ADI-21090 (antibody, V domains shown)
VH: EVQLLESGGGLVKPGGSLRLSCAASGFTSGFTFSDFYMSWIRLTPGKGLEWISYISTHSTSTNYADSVRGRFIISRDDARNSLFLQMNSLRAEDTAVYYCAGYYYGSGSYFFDHWGQGTLVTVSS
VL: ETTLTQSPATLSVSPGERATLSCRASQSVSSNVAWYQQKPGQAPRLLIYSASSRDTGIPVRFSGSGSGTEFTLSISSLQSEDFAVYYCQQYSDWPTFGQGTKVEIK
For the molecule B2, the Kd in assay [1] turned out to be 0.176 nM; in assay [2], 1.17 nM; in assay [3], 0.175 nM.

B3: ADI-41516 (antibody, V domains shown)
VH: EVQLLESGPRLVKPSETLSLTCIVSGGFISYDYWSWIRQPAGKGLEWIGRIYAGGIPKYNPSLKSRVTMSLDMSNNQFSLRLKSVTAADSAVYYCARAEPCSGDCFLGENPFDSWGQGTLVTVSS
VL: QSVLTQPPSASGTPGQRVTISCSGSSSSIGSNYVYWYQQLPGTAPKLLIHKDNERPSGVPDRFSGSKSGTSASLAISGLRSEDEGDYSCAAWDDSLSGWVFGGGTKLTVL
As to B3, the binding result in assay [4] is listed as “no binding”. Further, the Kd in assay [5] was found to be 0.414 nM. Further, the “Neutralization IC50 (RSV subtype A)” value with RSV F on RSV-A2 virus was determined as 0.08 µg/mL.

B4: ADI-43644 (antibody, V domains shown)
VH: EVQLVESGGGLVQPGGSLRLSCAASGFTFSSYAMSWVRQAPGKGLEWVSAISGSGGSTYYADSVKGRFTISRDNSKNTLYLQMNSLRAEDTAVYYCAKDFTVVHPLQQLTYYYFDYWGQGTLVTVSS
VL: DIVLTQSPATLSLSPGERATLSCRASQSVSSYLAWYQQKPGQAPRLLIYDASNRATGIPARFSGSGSGTDFTLTISSLEPEDFAVYYCQQRSNWPPGFTFGGGTKVEIK
Regarding B4, the binding result in assay [4] was “no binding”. Moreover, the Kd in assay [5] stood at 29.3 nM. For the same molecule, in the assay with RSV F on RSV-A2 virus, the “Neutralization IC50 (RSV subtype A)” value is greater than 25 µg/mL.

B5: ADI-43645 (antibody, V domains shown)
VH: QVQLVQSGAEVKKPGSSVKVSCKASGGTFSSYAISWVRQAPGQGLEWMGGIIPIFGTANYAQKFQGRVTITADESTSTAYMELSSLRSEDTAVYYCARGWRGGGMTGSYYYYGMDVWGQGTTVTVSS
VL: DIQVTQTPSTLSASVGDRVTITCRASQSISSWLAWYQQKPGKAPKLLIYKASSLESGVPSRFSGSGSGTEFTLTISSLQPDDFATYYCQQHRGTFGQGTKVDIK
notes: also called Ab 826; Antibody Number 826
For B5, the binding result in assay [4] is recorded as “no binding”. In addition, in assay [5], the Kd was 8.7 nM. In the assay with RSV F on RSV-A2 virus, the “Neutralization IC50 (RSV subtype A)” value is greater than 25 µg/mL.

B6: ADI-41521 (antibody, V domains shown)
VH: EVQLVESGGGLVQPGRSLRLSCAASGFTFDDFAMDWVRQVPGKGLEWVSGISWNGVSKDYAGSVKGRFTISRDNAKNSLYLQMNSLRAEDTALYFCAKARRDVYNWGDAFDIWGQGTMVTVSS
VL: DIRLTQSPGTLSLSPGERATLSCRASQPLNSNYLAWYRQKPGQAPRLLIFDASSRATGVPDRISGSGSGTDFTLTVSRLEPEDIAVYYCQQYASSPWTFGLGTKVEIK
For B6, in assay [4], the binding result was “no binding”. In addition, the Kd in assay [5] was 1.68 nM. Besides, in the assay with RSV F on RSV-A2 virus, the “Neutralization IC50 (RSV subtype A)” value was greater than 25 µg/mL.

B7: ADI-21070 (antibody, V domains shown)
VH: EVQLVESGGGLVQPGGSLRLSCAASGFTFSRYAMGWVRQAPGKGLEWVSTISDSGGSTFYADSVEGRFTIARDSSKNTLSLHMNSLRAEDTAIYYCAREAYSSSWYSGGWFDRWGQGTLVTVSS
VL: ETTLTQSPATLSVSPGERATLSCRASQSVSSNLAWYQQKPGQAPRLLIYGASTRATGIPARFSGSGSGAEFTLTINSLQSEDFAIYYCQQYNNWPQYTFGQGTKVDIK
On to B7, for which the binding result in assay [1] and in assay [3] was “no binding” in each case. In assay [2], the Kd came out at 5.37 nM. The “Neut IC50 (ug/ml) subtype B” value in assay [6] came out at 2.38 µg/mL.

B8: ADI-41524 (antibody, V domains shown)
VH: EVQLVESGGGLVQPGRSLRLSCTGSGFTFGDYAISWFRQAPGKGLEWVGFIRSKPYGGTTEYAASVKGTFTISRDDSKSIAYLQMNSLKTGDTAVYFCTRGIWGITMIVPWSDPWGQGTLVTVSS
VL: DIVMTQTPLSLPVTPGEPASISCRSSQSLLHSNGFNYLAWYLQKPGQSPQLLIYLNSNRASGVPDRFSGSGSGTDFTLKISRVEAEDVGVYYCMQALQTPLTFGPGTKLEIK
For B8, the binding result in assay [4] is “no binding”. In assay [5], this molecule gave a Kd of 3.18 nM. For the same molecule, the “Neutralization IC50 (RSV subtype A)” value with RSV F on RSV-A2 virus was greater than 25 µg/mL.

B9: ADI-41523 (antibody, V domains shown)
VH: QVQLVQSGAEVKKPGESLRISCKGSGDTFSNYWIGWVRQMPGKGLEWMGIIYPGDSDTRYSPSFQGQVTFSADKSISTAYLQWSSLKASDTAMYYCVRQVGGVVVTDTDNYYYGMDVWGQGTTVTVSS
VL: DIRLTQSPSSLSASVGDRVTITCRASQSIRSYLNWYQQKPGKAPKLLIYSASSLQSGVPSRFSGSGSGTDFTLTISSLQPEDFATYYCQQSHSTPLTFGPGTKVDIK
Turning to B9, in assay [4], the binding result is “no binding”. In assay [5], this molecule had a Kd of 2.91 nM. Moreover, the “Neutralization IC50 (RSV subtype A)” value with RSV F on RSV-A2 virus was greater than 25 µg/mL.

B10: ADI-21083 (antibody, V domains shown)
VH: QVQLQESGPGLVKPSGTLSLTCAVSGDSITTSNWWSWVRQPPGKGLEWIGEIYHSGVTRYNPSLKSRLSISLDKSRNQFSLKLSSVTAADTAVYYCARDEALFGHWFDPWGQGTLVTVSS
VL: QSVLTQPRSVSGSPGQSVTISCTGSSSDIGSYNYVSWYQQHPGKAPKLMLYDVSKRPSGVPDRFSGSKSVKTASLTISGLQAEDEADYYCCTYAGNSVVFGGGTKLTVL
For the molecule B10, the binding result in assay [1] and in assay [3] was “no binding” throughout. The Kd in assay [2] was 2.25 nM. In addition, the “Neut IC50 (ug/ml) subtype B” value in assay [6] was 0.79 µg/mL. Also, the “Neut IC50 (ug/ml) subtype A” value in assay [7] amounted to 0.36 µg/mL.

B11: ADI-21073 (antibody, V domains shown)
VH: EVQLVESGGGLVRPGRSLRLSCAASGFTFSMFSMNWVRQAPGKGLEWLAYIGGSGSTIDYANSVSGRFTISRDNAKNSLYLQMNSLRDEDTAVYYCARIGLQTYNSHSSSSSPARAFDVWGQGTTVTVSS
VL: DIVLTQSPSSLSASVGDRVTITCRASQSIGRFLNWYQQKPGKAPKLLIYAASSLESGVPSRFSGSGSGTQFSLTISSLQPEDFTTYYCQQSYSTPTTFGGGTKVDIK
As to B11, the Kd was 0.58 nM in assay [1], 4.06 nM in assay [2] and 0.675 nM in assay [3]. The “Neut IC50 (ug/ml) subtype B” value in assay [6] came out at 11.2 µg/mL.

B12: ADI-21071 (antibody, V domains shown)
VH: EVQLVESGGGVVQPGKSLRLSCAVSGFTFSDHDMHWVRQAPGKGLEWVAAIWSDRTTKYYGDFVKGRFTISRDNSKNTLYLQMNSLRAEDTAVYYCARGQIYKSGGYYLVHLDHWGQGTLVTVSS
VL: DIQVTQSPSSLSASVGDRVTITCRASQSIASYLNWYQQKPGKAPNLLIYAASNLQSEVPSRFSGSGSGTDFTLTISGLQPEDFATYYCQQSYNIRLLTFGGGTKVEIK
For the molecule B12, the Kd in assay [1] was 0.216 nM; in assay [2], 1.17 nM; in assay [3], 1.38 nM.

B13: ADI-43646 (antibody, V domains shown)
VH: EMQLMQSGGVVVQPGGSLRLSCAASGFTFDDYAMHWVRQAPGKGLEWVSLISWDGGSTYYADSVKGRFTISRDNSKNSLYLQMNSLRAEDTALYYCAKDFDPLVVPAAMCFDYWGQGTLVTVSS
VL: QSVLIQPASVSGSPGQSITISCTGTSSDVGGYNYVSWYQQHPGKAPKLMIYDVSNRPSGVSNRFSGSKSGNTASLTISGLQAEDEADYYCSSYTSSSTLYVFGTGTKLTVL
As to B13, the binding result in assay [4] is reported as “no binding”. Besides, the Kd in assay [5] was 5.34 nM. The “Neutralization IC50 (RSV subtype A)” value with RSV F on RSV-A2 virus is greater than 25 µg/mL.

B14: ADI-21068 (antibody, V domains shown)
VH: QVQLQESGPGLVKPSGTLSLTCVVSGGSIKSHNYWTWVRQPPGKGLEWVGEIYQSGRTNYNPSLNSRVTLSMDKSKNQLSLRLTSVTAADTAVYFCVGGGPFAPYYFQTWGQGTLVTVSS
VL: QSVLTQPPSVSGAPGQRVTISCTGSSSNIGAGYDVHWYQQLPGTAPKLLIYNNNNRPSGVPDRFSGSKSGTSASLAITGLQAEDEADYYCQSYDTSLSGYVFGTGTKVTVL
With B14, the Kd in assay [1] is 15.5 nM; in assay [2] it was 0.255 nM; in assay [3] it was 7.85 nM. Also, the “Neut IC50 (ug/ml) subtype A” value in assay [7] turned out to be 0.1 µg/mL.

B15: ADI-41517 (antibody, V domains shown)
VH: QVQLVQSGGGLVQPGGSLRLACAASGFTLSGYAMNWVRQAPGKGLEWVSSISGSGGSTYYADSVKGRFTTSRDNSKNTVFLHMNSLRAEDTAIYYCATVPWETGPFDHWGQGTLVTVSS
VL: QSVLTQPPSVSGAPGQRVTISCTGSSSNIGAGYAVHWYQQLPGTAPKLLIHGTTNRPSGVPDRFSGSKSGTSASLAITGLQAEDEADYYCQSYDSRLSGYVFGTGTKLTVL
Consider B15, for which, in assay [4], the binding result is reported as “no binding”. In assay [5], this molecule yielded a Kd of 0.501 nM. In addition, the “Neutralization IC50 (RSV subtype A)” value in the assay with RSV F on RSV-A2 virus stood at 0.02 µg/mL.

B16: ADI-21076 (antibody, V domains shown)
VH: EVQLVESGGGLVRPGGSLRLSCAASGFTFSSYAMDWVRQAPGKGLEWVSSISASSSFISYTDSVKGRFTISRDNAKNSLFLQMDNVTAEDTAVYYCARDYYESGRYFYGNPFDIWGQGTMVTVSS
VL: QPVLTQPPSVSGAPGQRVTISCTGSGSNIGAGFDVHWYQQLPGTAPKLLIYANSDRPSGVPDRFSASKSGTSASLAITGLQAEDEAHYYCQSYDNSLGGLCVFGTGTKLTVL
As for B16, the Kd in assay [1] was 7.34 nM; in assay [2] it was 0.219 nM; in assay [3], 6.28 nM. Moreover, in assay [6], the “Neut IC50 (ug/ml) subtype B” value is 0.3 µg/mL. Also, the “Neut IC50 (ug/ml) subtype A” value in assay [7] stood at 0.03 µg/mL.

The values above are taken from US20260258115A1 (MAPP BIOPHARMACEUTICAL, published 2026).
